In paper PMC4895014:
“And” between values parts separate entries of the source, which are not always exact repeats. Equal entries are not always repeated.

Target: recombinant full-length H7 hemagglutinin of A/Anhui/1/2013 (H7N9) influenza virus (influenza A virus A/Anhui/1/2013 (H7N9))
Experiment: […]; 500 ug/ml in PBS, […]

## recombinant full-length H7 hemagglutinin of A/Anhui/1/2013 (H7N9) influenza virus (natural protein)
  stoichiometry N (units (HA molecules per complex)): 6 and 7 and 8
